In paper PMC5454376, “Molecular mechanism of Gαi activation by non-GPCR proteins with a Gα-Binding and Activating motif” (Nature Communications, 2017):

B1: Human His-Gαi3 WT [human] / Fluorescein-labelled RGS12 GoLoco peptide (residues 1,185–1,221) [modified: 5,6-carboxyfluorescein coupled to the resin-bound peptide after chain elongation; 5,6-carboxyfluorescein coupled to the … (parent)
chain 1: MGCTLSAEDKAAVERSKMIDRNLREDGEKAAKEVKLLLLGAGESGKSTIVKQMKIIHEDGYSEDECKQYKVVVYSNTIQSIIAIIRAMGRLKIDFGEAARADDARQLFVLAGSAEEGVMTPELAGVIKRLWRDGGVQACFSRSREYQLNDSASYYLNDLDRISQSNYIPTQQDVLRTRVKTTGIVETHFTFKDLYFKMFDVGGQRSERKKWIHCFEGVTAIIFCVALSDYDLVLAEDEEMNRMHESMKLFDSICNNKWFTETSIILFLNKKDLFEEKIKRSPLTICYPEYTGSNTYEEAAAYIQCQFEDLNRRKDTKEIYTHFTCATDTKNVQFVFDAVTDVIIKNNLKECGLY
chain 2: DEAEEFFELISKAQSNRADDQRGLLRKEDLVLPEFLR

Variants of: B1
Assay: fluorescence polarisation
Conditions: with Fluorescein-labelled RGS12 GoLoco peptide (residues 1,185–1,221) [modified: 5,6-carboxyfluorescein coupled to the resin-bound peptide after chain elongation

Row | ratio to parent | Variant
1 | 1.15 | chain 1 MGCTLSAEDKAAVERSKMIDRNLREDGEKAAKEVKLLLLGAGESGKSTIVKQMKIIHEDGYSEDECKQYKVVVYSNTIQSIIAIIRAMGRLKIDFGEAARADDARQLFVLAGSAEEGVMTPELAGVIKRLWRDGGVQACFSRSREYQLNDSASYYLNDLDRISQSNYIPTQQDVLRTRVKTTGIVETHFTFKDLYFKMFDVGGQRSERKKWIHCFEGVTAIIFCVALSDYDLVLAEDEEMNRMHESMKLFDSICNNKFFTETSIILFLNKKDLFEEKIKRSPLTICYPEYTGSNTYEEAAAYIQCQFEDLNRRKDTKEIYTHFTCATDTKNVQFVFDAVTDVIIKNNLKECGLY [chain 1 W258F]
2 | 1.11 | chain 1 MGCTLSAEDKAAVERSKMIDRNLREDGEKAAKEVKLLLLGAGESGKSTIVKQMKIIHEDGYSEDECKQYKVVVYSNTIQSIIAIIRAMGRLKIDFGEAARADDARQLFVLAGSAEEGVMTPELAGVIKRLWRDGGVQACFSRSREYQLNDSASYYLNDLDRISQSNYIPTQQDVLRTRVKTTGIVETHFTFKDLYFKMFDVGGQRSERKKAIHCFEGVTAIIFCVALSDYDLVLAEDEEMNRMHESMKLFDSICNNKWFTETSIILFLNKKDLFEEKIKRSPLTICYPEYTGSNTYEEAAAYIQCQFEDLNRRKDTKEIYTHFTCATDTKNVQFVFDAVTDVIIKNNLKECGLY [chain 1 W211A]
3 | 1.92 | chain 1 MGCTLSAEDKAAVERSKMIDRNLREDGEKAAKEVKLLLLGAGESGKSTIVKQMKIIHEDGYSEDECKQYKVVVYSNTIQSIIAIIRAMGRLKIDFGEAARADDARQLFVLAGSAEEGVMTPELAGVIKRLWRDGGVQACFSRSREYQLNDSASYYLNDLDRISQSNYIPTQQDVLRTRVKTTGIVETHFTFKDLYFKMFDVGGQRSERKKWIHCFEGATAIIFCVALSDYDLVLAEDEEMNRMHESMKLFDSICNNKWFTETSIILFLNKKDLFEEKIKRSPLTICYPEYTGSNTYEEAAAYIQCQFEDLNRRKDTKEIYTHFTCATDTKNVQFVFDAVTDVIIKNNLKECGLY [chain 1 V218A]
